In publication PMC9942873 (Immunity, 2023):

B1: RUPA-54 (antibody, V domains shown)
VH: QVQLVESGGGVVQPGRSLRLSCTASGFTFRSYGIHWVRQAPGKGLQWVAFISYDGRNKYYADSVKGRFTISRDNSKNTLYLQMSGLRADDTAVYYCAKDSDNDCTATSCYTVSWGQGTLVTVSS
VL: SYELTQPPSVSVSPGQTARITCSGDALPKKYAYWYQQKSGQAPVLVIYEDKKRPSGIPERFSGSSSGTMATLTISGAQVEDEADYYCYSTDSRTDHGGIFGGGTKLTVL
notes: human IgG1; source: recombinant human IgG1, 293T (Protein A purified) or GenScript
B2: RUPA-57 (antibody, V domains shown)
VH: QVQLVESGGGVVQPGRSLRLSCTASGFSFSDYGMHWVRQAPGKGLEWVAVISYHGRDKSYADSVKGRFTISRDNSKKTLYLQMNSLTAEDTALYYCAKSNDHYDNSGYFVYWGLGTKVTVSS
VL: SYELTQPPSVSVSPGQTATITCSGDALPKKFAFWYQQKSGQAPVLVIYEDTKRPSGIPERFSGSSSGTLATLTISGAQVEDEADYYCYSRDSSNTQRVFGGGTKVTVL
notes: as for B1
B3: RUPA-61 (antibody, V domains shown)
VH: QVQLVQSGAEVKKPGASVKVSCKASEDTFSSYYIHWVRQAPGQGLEWMGMMNPSGGGTRYTQKFQGRVTMTSDTSTSTVYMEVISLRSEDTAVYYCARVRKRDAYNNRNWGSVFGGMDVWGQGTTVTVSS
VL: QSALTQPPSASGSPGQSVSISCTGTSSDVGGHDYVSWYQHHPGKAPKLMIYEVSKRPSGVPDRFSGAKSGNTASLTVSGLQAEDEADYYCSSFGGSNNLVFGGGTKVTVV
notes: as for B1
B4: RUPA-70 (antibody, V domains shown)
VH: QVQLQESGPGLVKPSQTLSLTCTVSGGSISIGGYYWSWIRQHPGKGLEWIGYIYYSGTTYYNPSLKSRVIISIDTSKNQFSLRLKSVTAADTAVYYCARTGLVAAIRGSRRGQQGDYFDYWGQGTLVPVSS
VL: SYELTQPPSVSVSPGQTASLTCSGDKLGDKYASWYQQKPGQSPVLVIHQDKKRPSGIPERFSGSNSGNTATLTISGTQAMDEADYYCQAWDSNTGVFGGGTKLTVL
notes: as for B1
B5: RUPA-72 (antibody, V domains shown)
VH: EVQLVESGGGLVQPGGSLRLSCAASGFTFSYYWMHWVRQAPGKELVWVSRIKSDGSSGTTTDYADSVKGRFTISRDTAKNTLYLQMNSLRAEDTAVYYCARAGCSNGVCPPRYYYHGMDVWGQGTTVTVSS
VL: EIVLTQSPGTLSGSPGERATLSCRASQSIRSNYLAWYQQKPGQAPRLLIYGASSRATDIPARFSGSGSGTDFTLTISRLEPEDFAVYYCQHYGNSRVTFGQGTKVEIK
notes: as for B1
B6: RUPA-86 (antibody, V domains shown)
VH: QVQLVQSGAEVKKPGASVKVSCKSSGFRFTGYYIHWVRQAPGQGLEWMGCINPNNGGTNYAQKFQGRVTMTRDTSITTAYMDLSRLKSDDTAVYYCARLVAYDQGLDVWGQGTTVTVSS
VL: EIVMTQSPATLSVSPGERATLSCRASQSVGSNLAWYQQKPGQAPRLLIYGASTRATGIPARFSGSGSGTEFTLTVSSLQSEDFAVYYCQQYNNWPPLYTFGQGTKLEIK
notes: as for B1
B7: RUPA-25 (antibody, V domains shown)
VH: QVQLVQSGAEVKKPGASVKVSCTASGYNFLTHDISWVRQATGQGLEWMGWMNPNTGKKGYVQKFQGRVTMDRDMSKSTAYMELRSLTSEDTAVYYCVRGVGSYYGSGGWFDPWGQGTLVTVSS
VL: QPVLTQPPSASETPGQKVTISCSGSSSNIGSDTVSWYVQLPGTAPKLLIYNDNQRPSGVPDRFSGSKSGTSASLAISGLQSEDEADYYCATWDASLKRRVFGGGTTLTVL
notes: as for B1
B8: RUPA-29 (antibody, V domains shown)
VH: QVHLVESGGGVVQPGRSLRLSCAASGFTFRSYGMHWVRLAPGKGLEWVTAIWYDGSKKHFADSVKGRFTISRDNSKNTLYLQMSSLRVEDTAVYYCARDFAHGAFYPVDWGRGTLVTVSS
VL: SYELTQPPSVSVSPGQTARITCSGDALPKKHAYWYQQKSGQAPVLVIYDDSKRPSGIPERFSGSSSGTMATLSISGAQVEDEAAYYCYSSDTSANYWVFGGGTKLTVL
notes: as for B1
B9: RUPA-35 (antibody, V domains shown)
VH: QVQLVQSGAEVKKPGASVKVSCKASGYTFTSHDIIWVRQAPGQGLEWMGWMNPNIGDTGYAQKFQGRLSMTRKMSISTAYMELSSLRSEDTAVYYCSRGVGTYHGSGGWFDPWGQGTLVTVSS
VL: QSVLTQPPSASETPGQRVTISCSGSTSNIGSNTVSWYQQYPGTAPKLLMYSDNQRPSGVPDRFSGSKSGTSASLAISGLQSEDEAEYYCATWDDSLKRGVFGGGTKLTVL
notes: as for B1
B10: RUPA-44 (antibody, V domains shown)
VH: QLQLQESGPGLVKPSETLSLTCTVSGGSISRSPYYWGWIRQPPGKGLEWFGSIYNNGSTYYNPPLKSRLTISVDTSKNQFSLKLSSVTAADTAVYYCARHGGSTGMKVVVIAPPDYWGQGTLVTVSS
VL: DIQMTQSPATLSASVGDRVTITCRASQSISSWLAWYQQKPGEAPKLLIYKASSLQSGVPSRFSGSGSGTKFSLTISSLQPDDFATFYCQQYHSYPYTFGQGTKLEIK
notes: as for B1
B11: RUPA-47 (antibody, V domains shown)
VH: QVQLVQSGAEVKKPGASVKLSCTASGYTFTNFGITWVRQAPGQGLEWMAWISVYSGDTDYAQRFQGRVTMTTDTSTRTAYMEMRSLSFDDTAVYYCVRGGRDSPILGGYWGQGTLVTVSS
VL: EIVLTQSPGTLSLSPGERVTLSCRASQSVRSMYLAWYQQKPGQAPRLLIHGASIRATGIPDRFSGSGSGTDFTLTISRLEREDFAVYYCHQYGSSPLTFGGGTKVESK
notes: as for B1
B12: RUPA-49 (antibody, V domains shown)
VH: QVQLVQSGAEVKKPGASVKVSCKASGYTFLYHDIIWMRQATGQGPEWMGWINPNTGNTGLAQKFQGRVSLTRNMSSGTAYMELRSLRSEDRAIYFCARGVGTYHGSGGWFDPWGQGTLVAVSS
VL: QSVLTQPPSASETPGQRVTLSCSGSSSNIGSHTVNWYRQLPGTAPKLLIHSDDQRPSGVPDRFSGSKSGTSASLAISGLQSEDEADYYCATWDDSLKRGVFGGGTKLTVL
notes: as for B1
B13: RUPA-50 (antibody, V domains shown)
VH: QVHLVESGGGVVQPGRSLRLSCAASGFTFRSYGMHWVRRVPGKGLEWVATISYDETFKDYPDSVKGRFTISRDNSKNTLFLQMNSLRPADTAVYYCAKDRAHSMHYFEYWGRGTLVTVSS
VL: SYELTQPPSVSVSPGQTARLTCSGDALPKKFAYWYQLKSGQAPVLVIYEDSKRPSGIPERFSGSSSGTTATLTISGAQVEDEADYYCYSRDGSGDQKNIFGGGTKLTVL
notes: as for B1
B14: RUPA-53 (antibody, V domains shown)
VH: QVLLVQSGAEVKKPGASVKVSCKASGYTFLYHDISWVRQATGQGLEWMGWMNPNTGDTGYAQRFQGRVTMTRDMSISTAYLELGSLSSEDTAVYYCARGVGSYHGSGGWLDPWGQGTLVIVSS
VL: not shown
notes: as for B1

How the values were obtained:
Assay in all cases: ELISA
Conditions in all cases: both partners purified
[1] = biological target: recombinant full-length Pfs48/45 (Plasmodium falciparum 3D7, UniProt Q8I6T1)
[2] = biological target: Pfs48/45 D2-3 (Plasmodium falciparum 3D7, UniProt Q8I6T1)
[3] = biological target: Pfs48/45 D3 (Plasmodium falciparum 3D7, UniProt Q8I6T1)
[4] = biological target: Pfs48/45 D1-2 (Plasmodium falciparum 3D7, UniProt Q8I6T1)
Pfs48/45 D1-2, sequence (Q8I6T1 28-289): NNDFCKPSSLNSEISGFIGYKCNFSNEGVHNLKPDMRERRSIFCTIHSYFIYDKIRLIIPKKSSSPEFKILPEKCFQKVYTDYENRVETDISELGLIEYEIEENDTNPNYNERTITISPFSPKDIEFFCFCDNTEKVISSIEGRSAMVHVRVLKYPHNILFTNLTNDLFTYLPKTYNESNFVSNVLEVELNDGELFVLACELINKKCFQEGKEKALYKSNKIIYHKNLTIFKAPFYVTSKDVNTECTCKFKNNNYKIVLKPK

recombinant full-length Pfs48/45, sequence (Q8I6T1 28-428): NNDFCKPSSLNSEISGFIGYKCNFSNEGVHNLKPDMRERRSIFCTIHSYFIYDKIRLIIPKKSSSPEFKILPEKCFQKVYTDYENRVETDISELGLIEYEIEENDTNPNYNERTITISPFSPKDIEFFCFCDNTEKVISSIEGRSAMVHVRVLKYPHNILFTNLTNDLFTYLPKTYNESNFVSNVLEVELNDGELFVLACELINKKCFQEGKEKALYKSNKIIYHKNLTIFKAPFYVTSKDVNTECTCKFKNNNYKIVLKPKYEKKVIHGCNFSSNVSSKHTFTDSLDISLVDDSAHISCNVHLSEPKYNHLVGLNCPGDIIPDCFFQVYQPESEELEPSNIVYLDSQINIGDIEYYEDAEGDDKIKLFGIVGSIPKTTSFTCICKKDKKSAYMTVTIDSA
Pfs48/45 D3, sequence (Q8I6T1 287-428): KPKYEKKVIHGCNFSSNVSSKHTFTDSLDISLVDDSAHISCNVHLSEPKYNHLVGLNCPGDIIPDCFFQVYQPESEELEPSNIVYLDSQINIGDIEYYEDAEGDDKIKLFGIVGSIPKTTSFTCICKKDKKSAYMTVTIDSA
Pfs48/45 D2-3, sequence (Q8I6T1 184-428): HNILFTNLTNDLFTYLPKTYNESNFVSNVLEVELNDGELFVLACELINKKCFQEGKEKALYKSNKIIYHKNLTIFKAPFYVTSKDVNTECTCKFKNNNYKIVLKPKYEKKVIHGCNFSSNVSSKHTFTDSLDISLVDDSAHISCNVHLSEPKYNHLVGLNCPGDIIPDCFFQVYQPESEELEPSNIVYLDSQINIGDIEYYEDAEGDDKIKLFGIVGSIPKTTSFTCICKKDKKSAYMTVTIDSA

Binder	binding result [1]	binding result [2]	binding result [3]	binding result [4]
B1	binds	binds	binds	
B2	binds	binds	binds	
B3	binds	binds	binds	
B4	binds	binds	binds	
B5	binds	binds	binds	
B6	binds	binds		binds
B7	binds	binds	no binding (tested: 10 ug/ml)	binds
B8	binds	binds	binds	
B9	binds	binds		binds
B10	binds	binds	binds	
B11	binds	binds	binds	
B12	binds	binds		binds
B13	binds	binds	binds	
B14	binds	binds		binds
